Assay results as given in IntAct's records for PubMed 18940603.

B1: Ras-related protein Rab-27A (Mus musculus), Q9ERI2 (parent)
chain: MSDGDYDYLIKFLALGDSGVGKTSVLYQYTDGKFNSKFITTVGIDFREKRVVYRANGPDGAVGRGQRIHLQLWDTAGQERFRSLTTAFFRDAMGFLLLFDLTNEQSFLNVRNWISQLQMHAYCENPDIVLCGNKSDLEDQRAVKEEEARELAEKYGIPYFETSAANGTNISHAIEMLLDLIMKRMERCVDKSWIPEGVVRSNGHTSADQLSEEKEKGLCGC
partner: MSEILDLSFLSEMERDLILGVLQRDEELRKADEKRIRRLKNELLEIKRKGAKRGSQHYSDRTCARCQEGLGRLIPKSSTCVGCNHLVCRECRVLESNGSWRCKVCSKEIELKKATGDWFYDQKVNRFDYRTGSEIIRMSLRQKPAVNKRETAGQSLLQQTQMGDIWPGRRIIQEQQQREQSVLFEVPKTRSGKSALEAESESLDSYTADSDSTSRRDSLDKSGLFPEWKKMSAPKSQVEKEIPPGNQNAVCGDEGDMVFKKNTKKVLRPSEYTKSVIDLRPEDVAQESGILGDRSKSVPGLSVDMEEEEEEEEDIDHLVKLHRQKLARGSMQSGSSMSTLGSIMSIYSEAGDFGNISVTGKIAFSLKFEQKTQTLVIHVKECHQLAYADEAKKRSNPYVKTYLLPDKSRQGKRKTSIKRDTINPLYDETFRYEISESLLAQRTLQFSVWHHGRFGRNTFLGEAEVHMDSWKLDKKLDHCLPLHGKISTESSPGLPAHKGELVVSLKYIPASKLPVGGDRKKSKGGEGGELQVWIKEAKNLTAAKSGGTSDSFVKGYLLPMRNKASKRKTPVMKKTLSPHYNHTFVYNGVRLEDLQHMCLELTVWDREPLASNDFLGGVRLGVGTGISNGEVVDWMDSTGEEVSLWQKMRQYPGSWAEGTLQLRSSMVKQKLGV
B2: Ras-related protein Rab-27B (Mus musculus), Q99P58 (parent)
chain: MTDGDYDYLIKLLALGDSGVGKTTFLYRYTDNKFNPKFITTVGIDFREKRVVYDTQGADGASGKAFKVHLQLWDTAGQERFRSLTTAFFRDAMGFLLMFDLTSQQSFLNVRNWMSQLQANAYCENPDIVLIGNKADLPDQREVNERQARELAEKYGIPYFETSAATGQNVEKSVETLLDLIMKRMEKCVEKTQVPDTVNGGNSGKLDGEKPAEKKCAC
partner: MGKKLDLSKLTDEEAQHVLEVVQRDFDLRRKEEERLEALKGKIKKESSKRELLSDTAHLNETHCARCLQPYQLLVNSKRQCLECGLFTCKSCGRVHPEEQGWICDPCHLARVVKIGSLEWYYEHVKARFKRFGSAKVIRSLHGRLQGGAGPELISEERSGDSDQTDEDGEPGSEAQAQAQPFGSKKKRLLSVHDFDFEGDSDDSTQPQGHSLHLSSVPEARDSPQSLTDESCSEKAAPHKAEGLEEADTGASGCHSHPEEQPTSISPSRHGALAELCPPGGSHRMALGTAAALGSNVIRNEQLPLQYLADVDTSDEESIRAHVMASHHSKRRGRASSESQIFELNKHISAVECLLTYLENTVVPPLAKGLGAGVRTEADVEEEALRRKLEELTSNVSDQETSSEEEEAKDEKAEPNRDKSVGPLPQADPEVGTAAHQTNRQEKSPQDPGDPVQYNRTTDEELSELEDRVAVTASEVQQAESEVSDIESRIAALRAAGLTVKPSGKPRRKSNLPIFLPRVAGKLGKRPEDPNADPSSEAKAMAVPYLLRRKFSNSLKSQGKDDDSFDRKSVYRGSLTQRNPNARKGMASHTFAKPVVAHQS
B3: Ras-related protein Rab-27A (Mus musculus), Q9ERI2 (parent)
chain: B1 chain
partner: B2 partner
B4: Ras-related protein Rab-27B (Mus musculus), Q99P58 (parent)
chain: B2 chain
partner: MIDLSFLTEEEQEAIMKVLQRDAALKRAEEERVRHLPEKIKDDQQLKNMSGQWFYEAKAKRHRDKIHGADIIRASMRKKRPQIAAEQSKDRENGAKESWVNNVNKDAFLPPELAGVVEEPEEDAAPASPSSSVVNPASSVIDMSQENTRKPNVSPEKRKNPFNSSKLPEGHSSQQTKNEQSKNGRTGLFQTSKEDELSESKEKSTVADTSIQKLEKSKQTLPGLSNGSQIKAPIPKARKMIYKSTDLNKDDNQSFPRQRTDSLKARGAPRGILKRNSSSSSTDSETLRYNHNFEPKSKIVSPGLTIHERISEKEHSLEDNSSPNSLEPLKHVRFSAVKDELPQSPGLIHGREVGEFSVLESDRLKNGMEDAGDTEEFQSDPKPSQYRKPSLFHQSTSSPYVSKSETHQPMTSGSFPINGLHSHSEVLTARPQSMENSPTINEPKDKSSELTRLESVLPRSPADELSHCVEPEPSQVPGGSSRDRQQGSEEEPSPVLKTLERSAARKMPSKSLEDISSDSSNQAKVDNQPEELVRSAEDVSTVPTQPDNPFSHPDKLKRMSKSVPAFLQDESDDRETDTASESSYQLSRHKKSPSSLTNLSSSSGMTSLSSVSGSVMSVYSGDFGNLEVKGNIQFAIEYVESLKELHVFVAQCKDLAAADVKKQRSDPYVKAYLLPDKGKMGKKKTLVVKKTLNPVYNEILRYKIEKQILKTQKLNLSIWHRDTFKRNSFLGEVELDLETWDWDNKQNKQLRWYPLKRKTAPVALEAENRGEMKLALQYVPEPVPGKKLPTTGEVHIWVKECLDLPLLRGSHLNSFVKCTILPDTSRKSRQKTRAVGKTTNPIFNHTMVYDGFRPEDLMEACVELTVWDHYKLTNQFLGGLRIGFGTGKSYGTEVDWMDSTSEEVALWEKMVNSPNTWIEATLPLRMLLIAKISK
B5: Ras-related protein Rab-27B (Mus musculus), Q99P58 (parent)
chain: B2 chain
partner: B1 partner
B6: Ras-related protein Rab-27A (Mus musculus), Q9ERI2 (parent)
chain: B1 chain
partner: B4 partner

Variants of: B1
Conditions: with Sytl4, Q9R0Q1-1

| effect of a mutation on the interaction | Variant |
| --- | --- |
| increasing interaction | C188S |
| increasing interaction | C123S |
| increasing interaction | C123S;C188S |

Variants of: B2
Conditions: with melph_human MLPH

| effect of a mutation on the interaction | Variant |
| --- | --- |
| increasing interaction | C123S;C188S |
| increasing interaction | C188S |

Variants of: B3
Conditions: with melph_human MLPH

| effect of a mutation on the interaction | Variant |
| --- | --- |
| increasing interaction | C188S |
| increasing interaction | C123S;C188S |

Variants of: B4
Conditions: with sytl2_human SYTL2, Q9HCH5

| effect of a mutation on the interaction | Variant |
| --- | --- |
| increasing interaction | C123S;C188S |

Variants of: B5
Conditions: with Sytl4, Q9R0Q1-1

| effect of a mutation on the interaction | Variant |
| --- | --- |
| increasing interaction | C123S;C188S |
| increasing interaction | C188S |
| increasing interaction | C123S |

Variants of: B6
Conditions: with sytl2_human SYTL2, Q9HCH5

| effect of a mutation on the interaction | Variant |
| --- | --- |
| increasing interaction | C123S;C188S |
